According to patent US20080248043A1 (Amgen, published 2008):
Where a chain is given by its changes, count along the chain named.

What was measured:
S1-Ig (12-672) = S1-Ig (12-672) (SARS-CoV; human, UniProt P59594 12-672); assay: ELISA, coated S1-IgG 12-672
S1-Ig (261-672) = S1-Ig (261-672) (SARS-CoV; human, UniProt P59594 261-672); assay: ELISA, coated S1-IgG 261-672
S1-Ig (12-510) = S1-Ig (12-510) (SARS-CoV; human, UniProt P59594 12-510); assay: ELISA, coated S1-IgG 12-510
S1-Ig (318-510) [1] = target: T1, S1-Ig (318-510) (SARS-CoV; human, UniProt P59594 318-510); assay: ELISA, coated S1-IgG 318-510
S1-Ig (318-510) [2] = target: T1, S1-Ig (318-510); assay: ELISA on coated S1-Ig fragment

B1: 3C7 (antibody, V domains shown)
VH: QVQLVESGGGVVQPGTSLRLSCAASGFTFSSYGIHWVRQAPGKGLEWVAVIWYDGSNKFYADSVKGRFTISRDNSKNTLYLQMNSLRAEDTAVYYCARDPLGYCSSTSCSYFDYWGQGTLVTVSS
VL: DIQMTQSPSSVSASVGDRVTITCRASQGISNWLAWYQQKPGKAPKLLIYAASSLQSGVPSRFSGSGSGTDFTLTIRSLQPEDFATYYCQQANNFPLTFGGGTKVEIK
Reactivity S1-IgG (ELISA OD) (S1-Ig (12-672)): 1.09 OD
Reactivity S1-IgG (ELISA OD) (S1-Ig (261-672)): 0.357 OD
Reactivity S1-IgG (ELISA OD) (S1-Ig (12-510)): 1.42 OD
Reactivity S1-IgG (ELISA OD) (S1-Ig (318-510) [1]): 2.19 OD

B2: 6B1 (antibody, V domains shown)
VH: B1 VH with Y60H
VL: B1 VL with R76S
Reactivity S1-IgG (ELISA OD) (S1-Ig (12-672)): 1.13 OD
Reactivity S1-IgG (ELISA OD) (S1-Ig (261-672)): 0.369 OD
Reactivity S1-IgG (ELISA OD) (S1-Ig (12-510)): 1.17 OD
Reactivity S1-IgG (ELISA OD) (S1-Ig (318-510) [1]): 2.09 OD

B3: 1B5 (antibody, V domains shown)
VH: QVQLVESGGGVVQPGRSLRLSCAASGFTFSSYGMHWVRQAPGKGLEWVAVIWYDGSNKYYADSVKGRFTISRDNSKNTLYLQMNSLRAEDTAVYYCARGDFYWFDPWGQGTLVTVSS
VL: DIQMTQSPSSLSASVGDRVTITCRASQGIRSDLGWYQQRPGKTPKRLIYAASSLQSGVPSRFSGSGSGTEFTLTISSLQPEDFATYYCQQYNSYPLTFGGGTKVEIK
Reactivity S1-IgG (ELISA OD) (S1-Ig (12-672)): 0.463 OD
binding result (S1-Ig (318-510) [2]): no binding
Reactivity S1-IgG (ELISA OD) (S1-Ig (261-672)): 0.11 OD
Reactivity S1-IgG (ELISA OD) (S1-Ig (12-510)): 1.29 OD
Reactivity S1-IgG (ELISA OD) (S1-Ig (318-510) [1]): 0.191 OD

B4: 3H12 (antibody, V domains shown)
VH: QVQLQESGPGLVKPSETLSLTCTVSDGSISSFYWSWIRQPPGKGLEWIGYIYYSGSTNYNPSLKSRVTISVDTSKNQFSLKLSSVTAADTAVYYCARDYDILTGYSNYYGMDVWGQGTTVTVSS
VL: B3 VL with S31N, R39K, T43A, Q89L, Y91H, L96F, G100P, V104L, E105D
Reactivity S1-IgG (ELISA OD) (S1-Ig (12-672)): 0.185 OD
Reactivity S1-IgG (ELISA OD) (S1-Ig (261-672)): 0.09 OD
Reactivity S1-IgG (ELISA OD) (S1-Ig (12-510)): 0.318 OD
Reactivity S1-IgG (ELISA OD) (S1-Ig (318-510) [1]): 1.3 OD

B5: 5E4 (antibody, V domains shown)
VH: QVHLVQSGAEVKKPGASVKVSCKASGYTFTGYYVHWVRQAPGQGLEWMGWINPNSGGTNYAQKFQGRVTMTRDTSISTAYMELSRLRSDDTAVYFCAGGRYLDYWGQGTLVTVSS
VL: B3 VL with S31N, R39K, T43A, Q89L, L96I, G100Q, K103R, V104L
Reactivity S1-IgG (ELISA OD) (S1-Ig (12-672)): 0.735 OD
Reactivity S1-IgG (ELISA OD) (S1-Ig (261-672)): 0.298 OD
Reactivity S1-IgG (ELISA OD) (S1-Ig (12-510)): 1.2 OD
Reactivity S1-IgG (ELISA OD) (S1-Ig (318-510) [1]): 2.27 OD

B6: 4E2 (antibody, V domains shown)
VH: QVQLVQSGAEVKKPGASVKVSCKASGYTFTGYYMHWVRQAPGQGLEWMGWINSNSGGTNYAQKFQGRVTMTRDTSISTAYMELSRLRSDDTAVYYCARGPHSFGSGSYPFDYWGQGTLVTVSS
VL: B3 VL
Reactivity S1-IgG (ELISA OD) (S1-Ig (12-672)): 0.019 OD
Reactivity S1-IgG (ELISA OD) (S1-Ig (261-672)): 0.551 OD
Reactivity S1-IgG (ELISA OD) (S1-Ig (12-510)): 1.52 OD
Reactivity S1-IgG (ELISA OD) (S1-Ig (318-510) [1]): 1.84 OD

B7: 6C2 (antibody, V domains shown)
VH: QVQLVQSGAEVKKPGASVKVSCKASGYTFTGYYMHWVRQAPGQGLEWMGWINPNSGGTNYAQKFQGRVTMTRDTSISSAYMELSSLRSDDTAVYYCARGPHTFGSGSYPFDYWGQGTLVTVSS
VL: B3 VL with K42N
Reactivity S1-IgG (ELISA OD) (S1-Ig (12-672)): 1 OD
Reactivity S1-IgG (ELISA OD) (S1-Ig (261-672)): 0.586 OD
Reactivity S1-IgG (ELISA OD) (S1-Ig (12-510)): 1.6 OD
Reactivity S1-IgG (ELISA OD) (S1-Ig (318-510) [1]): 1.85 OD

B8: 5A5 (antibody, V domains shown)
VH: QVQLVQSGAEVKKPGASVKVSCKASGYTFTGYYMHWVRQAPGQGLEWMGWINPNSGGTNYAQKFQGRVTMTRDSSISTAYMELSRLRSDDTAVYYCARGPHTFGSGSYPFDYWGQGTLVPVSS
VL: B3 VL with M4L
Reactivity S1-IgG (ELISA OD) (S1-Ig (12-672)): 0.986 OD
Reactivity S1-IgG (ELISA OD) (S1-Ig (261-672)): 0.337 OD
Reactivity S1-IgG (ELISA OD) (S1-Ig (12-510)): 1.19 OD
Reactivity S1-IgG (ELISA OD) (S1-Ig (318-510) [1]): 2.31 OD

B9: 4A10 (antibody, V domains shown)
VH: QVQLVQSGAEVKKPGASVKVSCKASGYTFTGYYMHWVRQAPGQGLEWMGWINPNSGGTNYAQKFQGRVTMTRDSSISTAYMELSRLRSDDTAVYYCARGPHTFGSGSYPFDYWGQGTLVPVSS
VL: B3 VL with M4L
Reactivity S1-IgG (ELISA OD) (S1-Ig (12-672)): 1.01 OD
Reactivity S1-IgG (ELISA OD) (S1-Ig (261-672)): 0.567 OD
Reactivity S1-IgG (ELISA OD) (S1-Ig (12-510)): 1.52 OD
Reactivity S1-IgG (ELISA OD) (S1-Ig (318-510) [1]): 1.79 OD

B10: 3F3 (antibody, V domains shown)
VH: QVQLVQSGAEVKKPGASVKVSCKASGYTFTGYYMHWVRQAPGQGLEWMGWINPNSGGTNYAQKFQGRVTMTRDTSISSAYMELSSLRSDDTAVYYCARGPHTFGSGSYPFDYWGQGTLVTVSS
VL: B3 VL with K42N
Reactivity S1-IgG (ELISA OD) (S1-Ig (12-672)): 1.07 OD
Reactivity S1-IgG (ELISA OD) (S1-Ig (261-672)): 0.325 OD
Reactivity S1-IgG (ELISA OD) (S1-Ig (12-510)): 1.35 OD
Reactivity S1-IgG (ELISA OD) (S1-Ig (318-510) [1]): 1.89 OD

B11: 5D6 (antibody, V domains shown)
VH: QVQLVQSGAEVKKPGASVKVSCKASGYTFTSYGISWVRQAPGQGLEWMGWISAYNGNTNYAQKLQGRVTMTTDTSTNTAYMELRSLRSDDTAVYYCAVGRYLDYWGQGTLVTVSS
VL: B3 VL with G28D, S31N, R39K, T43A, Q89L
Reactivity S1-IgG (ELISA OD) (S1-Ig (12-672)): 0.747 OD
Reactivity S1-IgG (ELISA OD) (S1-Ig (261-672)): 0.355 OD
Reactivity S1-IgG (ELISA OD) (S1-Ig (12-510)): 1.31 OD
Reactivity S1-IgG (ELISA OD) (S1-Ig (318-510) [1]): 2.12 OD
